Experiment [1] concerns the target T1, human TNF-alpha (human, UniProt P01375 77-233).
T1 construct: also called hTNF; human TNFα
Put plainly: SPR (Biacore T200), mouse IgG captured by anti-mouse IgG Fc, human TNF injected at 20 nM. The method, then: Recombinant rat/mouse chimeric IgG and Fab molecules were screened in the HEK-293-CD40-BLUE reporter assay at a number of concentrations to enable the calculation of EC50 values and determine the maximum percentage inhibition. […] IgG were also analysed in a Biacore experiment to determine binding affinities for human TNF. The assay format of the Biacore experiment was capture of the mouse IgG by immobilised anti-mouse IgG-Fc then titration of human TNF over the captured surface. BIA (Biamolecular Interaction Analysis) was performed using a Biacore T200 (GE Healthcare). Affinipure F(ab′)2 Fragment goat anti-mouse IgG, Fc fragment specific (Jackson ImmunoResearch) was immobilised on a CM5 Sensor Chip via amine coupling chemistry to a level of ˜5000 response units (RUs). HBS-EP buffer (10 mM HEPES pH 7.4, 0.15 M NaCl, 3 mM EDTA, 0.05% Surfactant P20, GE Healthcare) was used as the running buffer with a flow rate of 10 μL/min. A 10 μL injection of mouse IgG at 0.5 μg/mL was used for capture by the immobilised anti-mouse IgG-Fc. Human TNF, was injected over the captured mouse IgG twice at 20 nM at a flow rate of 30 μL/min. The surface was regenerated by 2×10 μL injection of 40 mM HCl, interspersed by a 5 μL injection of 5 mM NaOH at a flowrate of 10 μL/min. Background subtraction binding curves were analysed using the T200evaluation software (version 1.0) following standard procedures.
Neutralisation was determined using the HEK-293-CD40-BLUE reporter assay (Invivogen). […] Biacore analysis was performed to determine binding kinetics.
On the technique in general: SPR reads the build-up and loss of mass on a sensor chip optically.

The target in experiment [2] is T1, human TNF-alpha. In words: cell-based or functional assay.
For experiment [3], the target named is T1, human TNF-alpha. Put plainly: SPR (Biacore T200), Fab captured by anti-human F(ab')2, human TNF at 5 nM. On the procedure: (§1) The assay format of the Biacore experiment was capture of the rat/human chimeric Fabs by immobilised anti-human F(ab′) then titration of human or cynomolgus TNF over the captured surface. BIA (Biamolecular Interaction Analysis) was performed using a Biacore T200 (GE Healthcare). Affinipure F(ab′)2 Fragment goat anti-human IgG-F(ab′)2 fragment specific (Jackson ImmunoResearch) was immobilised on a CM5 Sensor Chip via amine coupling chemistry to a level of ˜5000 response units (RUs). HBS-EP buffer (10 mM HEPES pH 7.4, 0.15 M NaCl, 3 mM EDTA, 0.05% Surfactant P20, GE Healthcare) was used as the running buffer with a flow rate of 10 μL/min. A 10 μL injection of rat/human chimeric at 0.5 μg/mL was used for capture by the immobilised human IgG-F(ab′)2. Human or cynomolgus TNF, was injected over the captured rat/human chimeric Fab at (5 nM or 3.125 nM respectively) at a flow rate of 30 μL/min. The surface was regenerated by 2×10 μL injection of 50 mM HCl, interspersed by a 5 μL injection of 5 mM NaOH at a flowrate of 10 μL/min. Background subtraction binding curves were analysed using the T200evaluation software (version 1.0) following standard procedures.

For experiment [4], the target named is T2, cynomolgus TNF-alpha (cynomolgus, UniProt P79337 77-233).
T2 construct: also called cyno TNF; cTNF
In words: SPR (Biacore T200), Fab captured by anti-human F(ab')2, cynomolgus TNF at 3.125 nM. The method, then:
as §1

Values joined by “and” are separate entries in the source; they are usually repeats but may differ in a detail not shown here. Identical values can stand only once.

B1: CA2109 IgG (recombinant rat/mouse chimeric IgG, rat variable regions on mouse gamma-1 / mouse kappa) (antibody, V domains shown)
VH: EVQLHQSGAALVKPGASVKLSCKTSGYTFTDNYIHWVKQSPGKSLEWIGYINPSSAYAHYNEKFKTKATLTVDKSTNTAYMELSRLTSEDSATYFCTRRYYSAMPFAYWGQGTLVTVSS
VL: DIVMTQSPASLSASLGETVTIECRASEDIYNGLAWYQQKPGKSPHLLIYNSNTLHTGVPSRFSGTGSGTQYSLKINSLQSEDVATYFCQQNYDFPLTFGSGTKLELK
notes: Rat variable regions cloned into mouse gamma-1 IgG and mouse kappa expression vectors, expressed in HEK-293; also called fwk18 IgG
Usually Kd stands for the concentration at which binding is half-saturated. A low value points to a tighter complex. For orientation: koff means the rate constant with which the complex falls apart. A lower koff goes with slow dissociation. The kon is the rate constant with which the complex forms. The low end stands for slow association, the high end for fast association. B1: in experiment [1], the equilibrium dissociation constant (Kd) stood at 0.025 nM, the koff was determined as 0.000119 s⁻¹ and the kon was 4.7e+06 M⁻¹ s⁻¹. In experiment [2], the “EC50 (ng/ml), HEK-293-CD40-BLUE reporter assay” value came out at 0.31 ng/mL.

B2: 02109 rat/human chimeric Fab (Fab, V domains shown)
VH: EVQLHQSGAALVKPGASVKLSCKTSGYTFTDNYIHWVKQSPGKSLEWIGYINPSSAYAHYNEKFKTKATLTVDKSTNTAYMELSRLTSEDSATYFCTRRYYSAMPFAYWGQGTLVTVSS
VL: DIVMTQSPASLSASLGETVTIECRASEDIYNGLAWYQQKPGKSPHLLIYNSNTLHTGVPSRFSGTGSGTQYSLKINSLQSEDVATYFCQQNYDFPLTFGSGTKLELK
notes: Rat variable regions with human Fab constant regions; not the humanised graft; also called CA2109
As to B2, in experiment [3], the equilibrium dissociation constant (Kd) was 0.0349 nM and 0.035 nM; the koff worked out at 0.000143 s⁻¹; the on-rate (kon) turned out to be 4.09e+06 M⁻¹ s⁻¹. For the same molecule, in experiment [4], the equilibrium dissociation constant (Kd) was 0.0274 nM and 0.027 nM; the off-rate constant (koff) amounted to 0.000102 s⁻¹; the kon turned out to be 3.71e+06 M⁻¹ s⁻¹.

The values above are taken from patent US20200277366A1 (UCB, published 2020).
